B1: Pro-(X)-BMP-9 [human] / itself (parent)
chain: KPLQSWGRGSAGGNAHSPLGVPGGGLPEHTFNLKMFLENVKVDFLRSLNLSGVPSQDKTRVEPPQYMIDLYNRYTSDKSTTPASNIVRSFSMEDAISITATEDFPFQKHILLFNISIPRHEQITRAELRLYVSCQNHVDPSHDLKGSVVIYDVLDGTDAWDSATETKTFLVSQDIQDEGWETLEVSSAVKRWVRSDSTKSKNKLEVTVESHRKGCDTLDISVPPGSRNLPFFVVFSNDHSSGTKETRLELREMISHEQESVLKKLSKDGSTEAGESSHEEDTDGHVAAGSTLAIEGRSSGAGSHCQKTSLRVNFEDIGWDSWIIAPKEYEAYECKGGCFFPLADDVTPTKHAIVQTLVHLKFPTKVGKACCVPTKLSPISVLYKDDMGVPTLKYHYEGMSVAECGCR

Variants of: B1
Assay: SDS-PAGE densitometry
Settings: with itself; IMAC column purified Pro-BMP-9

| Variant | screen value |
| --- | --- |
| KPLQSWGRGSAGGNAHSPLGVPGGGLPEHTFNLKMFLENVKVDFLRSLNLSGVPSQDKTRVEPPQYMIDLYNRYTSDKSTTPASNIVRSFSMEDAISITATEDFPFQKHILLFNISIPRHEQITRAELRLYVSCQNHVDPSHDLKGSVVIYDVLDGTDAWDSATETKTFLVSQDIQDEGWETLEVSSAVKRWVRSDSTKSKNKLEVTVESHRKGCDTLDISVPPGSRNLPFFVVFSNDHSSGTKETRLELREMISHEQESVLKKLSKDGSTEAGESSHEEDTDGHVAAGSTLAIEGRSSGAGSHCQKTSLRVNFEDIGWDSWIIAPKEYEAYECRGGCFFPLADDVTPTKHAIVQTLVHLKFPTKVGKACCVPTKLSPISVLYKDDMGVPTLKYHYEGMSVAECGCR [chain 1 K335R] | 0.7 |
| KPLQSWGRGSAGGNAHSPLGVPGGGLPEHTFNLKMFLENVKVDFLRSLNLSGVPSQDKTRVEPPQYMIDLYNRYTSDKSTTPASNIVRSFSMEDAISITATEDFPFQKHILLFNISIPRHEQITRAELRLYVSCQNHVDPSHDLKGSVVIYDVLDGTDAWDSATETKTFLVSQDIQDEGWETLEVSSAVKRWVRSDSTKSKNKLEVTVESHRKGCDTLDISVPPGSRNLPFFVVFSNDHSSGTKETRLELREMISHEQESVLKKLSKDGSTEAGESSHEEDTDGHVAAGSTLAIEGRSSGAGSHCQKTSLRVNFEDIGWDSWIIAPKEYEAYECRGGCFFPLADDVTPTKHAIVQTLVHLKFPTKVSKACCVPTKLSPISVLYKDDMGVPTLKYHYEGMSVAECGCR [chain 1 K335R G367S] | 3.24 |
| KPLQSWGRGSAGGNAHSPLGVPGGGLPEHTFNLKMFLENVKVDFLRSLNLSGVPSQDKTRVEPPQYMIDLYNRYTSDKSTTPASNIVRSFSMEDAISITATEDFPFQKHILLFNISIPRHEQITRAELRLYVSCQNHVDPSHDLKGSVVIYDVLDGTDAWDSATETKTFLVSQDIQDEGWETLEVSSAVKRWVRSDSTKSKNKLEVTVESHRKGCDTLDISVPPGSRNLPFFVVFSNDHSSGTKETRLELREMISHEQESVLKKLSKDGSTEAGESSHEEDTDGHVAAGSTLAIEGRSSGAGSHCQKTSLRVNFEDIGWDSWIIAPKEYEAYECKGGCFFPLADDVTPTKHAIVQTLVHLKFPTKVSKACCVPTKLSPISVLYKDDMGVPTLKYHYEGMSVAECGCR [chain 1 G367S] | 1.29 |
